“And” between values parts separate entries of the source, which are not always exact repeats. Identical values can stand only once.

The conditions of the data set: Saccharomyces cerevisiae (strain ATCC 204508 / S288c); pH 7; Thermal; CD; potassium phosphate 25 mM; reversible: Yes; whole UniProt chain shown.

B1: GrpE protein homolog, mitochondrial wild type, P38523 (protein)
chain: MRAFSAATVRATTRKSFIPMAPRTPFVTPSFTKNVGSMRRMRFYSDEAKSEESKENNEDLTEEQSEIKKLESQLSAKTKEASELKDRLLRSVADFRNLQQVTKKDIQKAKDFALQKFAKDLLESVDNFGHALNAFKEEDLQKSKEISDLYTGVRMTRDVFENTLRKHGIEKLDPLGEPFDPNKHEATFELPQPDKEPGTVFHVQQLGFTLNDRVIRPAKVGIVKGEEN
B1: the Tm was 53.2 °C and 52.5 °C and 52.4 °C.

As usually defined, the Tm is the temperature at which the thermal transition is half complete.

These data come from FireProtDB (doi:10.1016/j.jmb.2006.03.027).
